# Test results taken from patent publication US6649364.
# Key:
# [1] = molecular target: DNase I (Sigma, St. Louis, Mo.)
# [2] = molecular target: α-actin purified from rabbit skeletal muscle, globular (G-actin) form, P68135
protein,measurement,setting,value
highly purified human recombinant ICE (p20/p10) (Merck) (protein) chain 1: NPAMPTSSGSEGNVKLCSLEEAQRIWKQKSAEIYPIMDKSSRTRLALIICNEEFDSIPRRTGAEVDITGMTMLLQNLGYSVDVKKNLTASDMTTELEAFAHRPEHKTSDSTFLVFMSHGIREGICGKKHSEQVPDILQLNAIFNMLNTKNCPSLKDKPKVIIIQACRGDSPGVVWFKD chain 2: AIKKAHIEKDFIAFCSSTPDNVSWRHPTMGSVFIGRLIEHMQEYACSCDVEEIFRKVRFSFEQPDGRAQMPTTERVTLTRCFYLFPGH,cleavage of DNase I and its endonuclease activity,[1],Control incubations without actin demonstrated that ICE neither cleaved DNase I nor affected its endonuclease activity
same,cleavage of purified actin (SDS-polyacrylamide gel electrophoresis),[2],"In the presence of ICE, actin was cleaved, resulting in a disappearance of the 42 kd band, and the appearance of bands at approximately 41 kd, 30 kd, and 14 kd"
